Source: patent US20190315837A1

Molecular target: His-tagged human Her2/Neu protein (Her2-His) (human) (UniProt P04626)
Test: Octet (BLI), Her2-His on penta-His biosensor, antibody in solution

For human IgG1 control (antibody), the Kd was < 1 pM, the koff was < 1e-07 s⁻¹ and the kon was 1.04e+06 M⁻¹ s⁻¹.
